The source of these data is article PMC3794917.

In data set [1] the target is Rad51;Rad52 (Saccharomyces cerevisiae) (UniProt P06778). The data set is described as follows: EM. As to conditions: RPA pre-bound, 60 mM NaCl, Rad52 EMSA: 10 mM Tris-HCl pH 8, 5 mM MgCl2, 100 mM NaCl, 37 C, 10 min, 0.27 uM XV2, 8% native PAGE, filament assays: SEB buffer, 60 mM NaCl (or titrated) ….
In data set [2] the target is Rad51;Rad52-L264P L264P (Saccharomyces cerevisiae) (UniProt P06778). The data set is described as follows: EM. As to conditions: RPA pre-bound, 60 mM NaCl (WT Rad52 55%); Rad52 EMSA: 10 mM Tris-HCl pH 8, 5 mM MgCl2, 100 mM NaCl, 37 C, 10 min, 0.27 uM XV2, 8% native PAGE; filament assays: SEB buffer, 60 mM NaCl (or titrated) …; scale: % of complete Rad51 filaments associated with Rad52-L264P. (In general: Mobility shift assays separate free from complexed probe on a gel.)

The target in data set [3] is Rad51;Rad52 (Saccharomyces cerevisiae) (UniProt P06778). The data set is described as follows: EMSA (glutaraldehyde-fixed, agarose). As to conditions: Rad52 EMSA: 10 mM Tris-HCl pH 8, 5 mM MgCl2, 100 mM NaCl, 37 C, 10 min, 0.27 uM XV2, 8% native PAGE, filament assays: SEB buffer, 60 mM NaCl (or titrated) …, scale: mM NaCl.
Data set [4] addresses Rad51;Rad52-L264P L264P (Saccharomyces cerevisiae) (UniProt P06778). The data set is described as follows: EMSA (glutaraldehyde-fixed, agarose). The note with it: Rad52 EMSA: 10 mM Tris-HCl pH 8, 5 mM MgCl2, 100 mM NaCl, 37 C, 10 min, 0.27 uM XV2, 8% native PAGE, filament assays: SEB buffer, 60 mM NaCl (or titrated) …, scale: mM NaCl.

Chain of Rad51;Rad52 (Saccharomyces cerevisiae) (P06778 whole entry, looked up): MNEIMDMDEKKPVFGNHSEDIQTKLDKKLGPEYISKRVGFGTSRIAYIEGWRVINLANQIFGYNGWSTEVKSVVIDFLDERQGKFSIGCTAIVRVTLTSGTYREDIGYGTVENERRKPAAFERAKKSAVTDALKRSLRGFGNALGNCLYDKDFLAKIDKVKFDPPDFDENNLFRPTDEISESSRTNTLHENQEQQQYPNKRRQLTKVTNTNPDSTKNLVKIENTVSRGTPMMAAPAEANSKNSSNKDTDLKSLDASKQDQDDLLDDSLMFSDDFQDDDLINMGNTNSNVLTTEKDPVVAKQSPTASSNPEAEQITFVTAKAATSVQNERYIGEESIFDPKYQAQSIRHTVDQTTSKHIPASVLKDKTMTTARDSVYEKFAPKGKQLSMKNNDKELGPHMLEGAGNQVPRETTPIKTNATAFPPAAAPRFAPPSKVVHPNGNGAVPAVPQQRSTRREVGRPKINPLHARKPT
Chain of Rad51;Rad52-L264P L264P (Saccharomyces cerevisiae) (P06778 whole entry L264P, looked up): as the sequence (P06778 whole entry, looked up) above, with L264P counted along it

400-nt ssDNA fragment showed a binding signal (% complete Rad51 filaments) in data set [1] (55% of complete filaments carry Rad52) of 48. The binding signal in data set [1] (scale: % of complete Rad51 filaments associated with Rad52) was 55; in data set [2], 74. Also, the K half in data set [3] (RPA pre-bound, NaCl titration during assembly) worked out at 90; in data set [3], 400; in data set [4] (RPA pre-bound, NaCl added after assembly, no difference from WT), 400; in data set [4], 90.
